Laboratory results published in patent publication US5977435A, “Plant phosphatases” (Performance Plants, Inc., priority 1997, dated 1999).
Several values for one entry are separate records, joined by “and”; a condition that tells them apart may be missing. Equal entries are not always repeated.

Assays:
[1] = target: minor 28-kD potato tuber phosphatase isoform; conditions: cited from earlier work
potato phosphatase [2] = target: T1, potato phosphatase (Solanum tuberosum, UniProt Q6J5M8); assay: Phosphatase assay B, substrate specificity; conditions: purified potato phosphatase, assay B, pH 5.8, 25° C
T1 sequence (Q6J5M8 with tags, fused parts or gaps V118I/E238V/S277N/V282G/E319A/A394T/S415A/T416I/D418E/I426Y/H428S/N437A): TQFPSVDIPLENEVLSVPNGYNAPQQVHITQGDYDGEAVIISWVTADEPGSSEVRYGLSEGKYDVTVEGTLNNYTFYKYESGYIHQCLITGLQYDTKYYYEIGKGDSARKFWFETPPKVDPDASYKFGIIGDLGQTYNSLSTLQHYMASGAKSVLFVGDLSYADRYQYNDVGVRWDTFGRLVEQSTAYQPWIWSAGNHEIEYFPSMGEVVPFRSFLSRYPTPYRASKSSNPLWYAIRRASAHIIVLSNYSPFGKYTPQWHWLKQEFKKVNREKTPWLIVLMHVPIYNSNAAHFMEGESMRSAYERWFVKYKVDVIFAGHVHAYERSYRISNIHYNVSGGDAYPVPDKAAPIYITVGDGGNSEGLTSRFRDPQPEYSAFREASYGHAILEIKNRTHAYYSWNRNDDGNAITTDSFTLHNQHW
Experimental: Phosphatase activity was determined using assay B and a wide range of compounds, tested at a total concentration of 5 mM unless otherwise specified.
(§1) Phosphatase (0.05 units) was incubated in 1.5 mL cuvettes with 0.9 mL of 50 mM MES-NaOH (pH 5.8) containing 4 mM MgCl2 and an alternative substrate (5 mM unless otherwise indicated) for 6 min at 25° C. Reactions were terminated by the sequential addition of 0.1 mL reagent A (3 M H2 SO4 containing 20 mM ammonium molybdate) and […] of 1% (v/v) Triton X-100. Samples were incubated at 25° C. for 20 min and the A660 was determined. To calculate activities, a standard curve over the range of […] Pi was constructed for each set of assays. Assays were performed in triplicate and controls were run for background amounts of Pi present at each substrate concentration by adding reagent A before the enzyme.

[3] = system: P-Tyr phosphatase from Escherichia coli; conditions: E. coli P-Tyr phosphatase; cited from earlier work
[4] = target: potato tuber phosphatase (PTAP) (potato (Solanum tuberosum L. cv. Chiefton))
[5] = target: egg yolk storage phosphoprotein, phosvitin (Gallus gallus (Chicken)) (UniProt P02845)
[6] = substrate: NC(COP(=O)(O)O)C(=O)O; assay: purified protein, by the assay type; conditions: other: apparent Km, purified potato phosphatase, assay B; pH 5.8; 25.0 °C
[7] = substrate: Nc1ncnc2c1ncn2[C@@H]1O[C@H](COP(=O)(O)OP(=O)(O)OP(=O)(O)O)[C@@H](O)[C@H]1O; assay: purified protein, by the assay type; conditions: other: apparent Km, purified potato phosphatase, assay B; pH 5.8; 25.0 °C
Experimental: (§3) Phosphatase (0.05 units) was incubated in 1.5 mL cuvettes with 0.9 mL of 50 mM MES-NaOH (pH 5.8) containing 4 mM MgCl2 and an alternative substrate (5 mM unless otherwise indicated) for 6 min at 25° C. Reactions were terminated by the sequential addition of 0.1 mL reagent A (3 M H2 SO4 containing 20 mM ammonium molybdate) and 10 ml of 1% (v/v) Triton X-100. Samples were incubated at 25° C. for 20 min and the A660 was determined. To calculate activities, a standard curve over the range of 0.01 to 1.0 mmol Pi was constructed for each set of assays. Assays were performed in triplicate and controls were run for background amounts of Pi present at each substrate concentration by adding reagent A before the enzyme. Hydrolysis was proportional to enzyme concentrations between 0.005 to 0.1 units/mL and remained linear with time for at least 15 min.
(§4) All kinetic parameters are the means of duplicate determinations performed on two separate preparations of the purified enzyme, and are reproducible to within ±10% SE.

[8] = substrate: O=[N+]([O-])c1ccc(OP(=O)(O)O)cc1; assay: purified protein, by the assay type; conditions: other: apparent Km, purified potato phosphatase, assay B; pH 5.8; 25.0 °C
[9] = substrate: C=C(OP(=O)(O)O)C(=O)O; assay: purified protein, by the assay type; conditions: other: apparent Km, purified potato phosphatase, assay B; pH 5.8; 25.0 °C
[10] = substrate: N[C@@H](Cc1ccc(OP(=O)(O)O)cc1)C(=O)O; assay: purified protein, by the assay type; conditions: other: apparent Km, purified potato phosphatase, assay B; pH 5.8; 25.0 °C
Experimental: as §3, §4

[11] = Heat-stability of the phosphatase; format: physicochemical
Experimental: The phosphatase was relatively heat-stable, losing 0, 52, and 90% of its original activity when incubated for 4 min at 65, 70 and 75° C., respectively.

potato phosphatase [12] = target: T1, potato phosphatase; assay: Effect of pH on phosphatase activity (assay A with PEP); format: biochemical; parameters: mature chain from Thr30, C-terminus not determined; conditions: pH/activity profile
Experimental: Unless otherwise stated all kinetic studies of the potato phosphatase were performed with PEP using assay A (infra).
All subsequent kinetic studies were carried out at pH 5.8.
(§2) Assays were initiated by the addition of enzyme preparation. One unit of phosphatase activity is defined as the quantity of enzyme that would catalyze the hydrolysis of 1 […] of substrate/min at 25° C.

potato phosphatase [13] = target: T1, potato phosphatase; assay: Specific activity of purified potato tuber phosphatase; format: biochemical; parameters: mature chain from Thr30, C-terminus not determined
Experimental: As an initial step towards the isolation of plant phosphatase genes, the predominant phosphatase from potato tuber was purified to a final P-Tyr-hydrolyzing specific activity of 1917 units/mg (Gellatly et al, 1994). Only a single peak of activity was recovered following chromatography on columns of S-Sepharose, phosphocellulose and Phenyl Superose (Gellatly et al, 1994). One unit is defined as the μmoles of Pi produced per min at 25° C. The enzyme was purified 2289-fold to a final PEP-hydrolyzing specific activity of 618 units/mg and an overall recovery of 31% (Gellatly et al, 1994). With P-Tyr as substrate the final specific activity was increased to approximately 1900 units/mg (Table 1). This final specific activity was higher than any reported for a purified plant phosphatase (Duff et al, 1994).
as §2
as §1, with “enzyme. Hydrolysis was proportional to enzyme concentrations between 0.005 to 0.1 units/mL and remained linear with time for at least 15 min.” for “enzyme.”
Potato tuber phosphatase was purified by the method of Gellatly et al. (1994).

[14] = system: potato tuber phosphotyrosyl proteins; assay: Dephosphorylation of potato tuber phosphotyrosyl proteins by potato tuber phosphatase; format: biochemical, Solanum tuberosum; conditions: + 30 units/mL phosphatase
Experimental: A desalted potato tuber extract was incubated at 25° C. in the absence (-) and presence (+) of 30 units/mL purified potato tuber phosphatase. Aliquots were removed at 2 and 19 h and analyzed by immunoblotting using anti-(P-Tyr) IgG (Kamps and Sefton, 1988). The relative P-Tyr content of the 7 antigenic polypeptides was estimated by laser densitometric quantification of the immunoblots as described in the examples. Unless otherwise noted, all values represent the means±SE of triplicate determinations. ^a, the mean of duplicate determinations.
Electroblotting was performed by the method of Moorhead and Plaxton (1990), with the addition of […] o-vanadate to the transfer buffer when maintenance of phosphotyrosyl residues was desired. All immunoblots to be probed with the anti-(black mustard PEP-specific phosphatase) IgG (Duff et al, 1991a) were first pre-treated with sodium m-periodate according to Laine (1988) so as to oxidize antigenic oligosaccharide chains of endogenous tuber glycoproteins. Immunological detection of phosphotyrosylated tuber proteins using anti-(P-Tyr) IgG (Kamps and Sefton, 1988) was performed as referenced above except that the blocking buffer contained 5% (w/v) bovine serum albumin (fraction V) and 1% (w/v) ovalbumin instead of 3% (w/v) defatted milk powder.
Antigenic polypeptides were visualized using an alkaline-phosphatase-taggedsecondary antibody (Moorhead and Plaxton, 1990). Immunological specificities were confirmed by performing immunoblots in which rabbit preimmune serum was substituted for the affinity-purified IgGs. An LKB Ultroscan XL Enhanced Laser Densitometer was used to scan indicated immunoblots. Densitometric data were analysed using the LKB Gelscan XL software (version 2.1). Immunoreactive polypeptides were quantified in terms of their relative absorbance at 633 nm wavelength (A633).
Peeled and diced potato tuber tissue (5 g) was homogenized with a Polytron in 1 volume of 100 mM MES-NaOH (pH 5.8) containing 2 mM PMSF, 2 mM DTT, and 1 mM EDTA. The homogenate was centrifuged for 10 min at 13,000 g in an Eppendorf microfuge, and a 3-mL aliquot of the supernatant fluid was passed at 4° C. through a BioRad Econo-Pac 10DG desalting column that had been pre-equilibrated in homogenization buffer lacking PMSF. Aliquots (0.1 mL) of the desalted crude extract were incubated at 25° C. with and without 3 units of the purified potato phosphatase. Samples were removed at 0, 2 and 19 h and analyzed by immunoblotting using the anti-(P-Tyr) IgG as described supra. Laser densitometric scanning and immunoquantification of the blots was performed as described supra.

NC(COP(=O)(O)O)C(=O)O (stereo not drawn) [P-Ser]
dephosphorylation by the minor 28-kD isoform [1]: inability to catalyze dephosphorylation | Vmax (potato phosphatase [2]): 389 units/mg

N[C@@H](Cc1ccc(OP(=O)(O)O)cc1)C(=O)O [P-Tyr, o-phospho-L-tyrosine]
Km [3]: > 6000 µM

egg yolk storage phosphoprotein, phosvitin (from UniProt P02845)
Relative Activity (%) of potato phosphatase with 0.25 mM PEP [4]: 19%

potato tuber phosphatase (PTAP) (enzyme)
phosphoprotein phosphatase activity [5]: 220 units/mg

B1: potato phosphatase (Solanum tuberosum) (protein)
chain: TQFPSVDIPLENEVLSVPNGYNAPQQVHITQGDYDGEAVIISWVTADEPGSSEVRYGLSEGKYDVTVEGTLNNYTFYKYESGYIHQCLITGLQYDTKYYYEIGKGDSARKFWFETPPKVDPDASYKFGIIGDLGQTYNSLSTLQHYMASGAKSVLFVGDLSYADRYQYNDVGVRWDTFGRLVEQSTAYQPWIWSAGNHEIEYFPSMGEVVPFRSFLSRYPTPYRASKSSNPLWYAIRRASAHIIVLSNYSPFGKYTPQWHWLKQEFKKVNREKTPWLIVLMHVPIYNSNAAHFMEGESMRSAYERWFVKYKVDVIFAGHVHAYERSYRISNIHYNVSGGDAYPVPDKAAPIYITVGDGGNSEGLTSRFRDPQPEYSAFREASYGHAILEIKNRTHAYYSWNRNDDGNAITTDSFTLHNQHW
Km [6]: 620 µM | Km [7]: 2160 µM | Vmax [7]: 368 units/mg | Km [8]: 1100 µM | Km [9]: 1520 µM | Km [10]: 990 µM | Vmax [10]: 1917 units/mg

B2: PTAP: potato tuber acid phosphatase purified from Solanum tuberosum tubers; 57 and 55 kD subunits (protein)
chain: TQFPSVDIPLENEVLSVPNGYNAPQQVHITQGDYDGEAVIISWVTADEPGSSEVRYGLSEGKYDVTVEGTLNNYTFYKYESGYIHQCLITGLQYDTKYYYEIGKGDSARKFWFETPPKVDPDASYKFGIIGDLGQTYNSLSTLQHYMASGAKSVLFVGDLSYADRYQYNDVGVRWDTFGRLVEQSTAYGPWIWSAGNHEIEYFPSMGEVVPFRSFLSRYPTPYRASKSSNPLWYAIRRASAHIIVLSNYSPFGKYTPQWHWLKQEFKKVNREKTPWLIVLMHVPIYNSNAAHFMEGESMRSAYERWFVKYKVDVIFAGHVHAYERSYRISNIHYNVSGGDAYPVPDKAAPIYITVGDGGNSEGLTSRFRDPQPEYSAFREASYGHAILEIKNRTHAYYSWNRNDDGNAITTDSFTLHNQHW
loss of original activity ([11]; incubated 4 min at 65° C): 0% | loss of original activity ([11]; incubated 4 min at 70° C): 52% | loss of original activity ([11]; incubated 4 min at 75° C): 90% | pH of maximum activity (potato phosphatase [12]): ~5.8 | pH of half-maximal activity (potato phosphatase [12]; listed as potato phosphatase): 4.9 and 6.7 | o-phospho-L-tyrosine (P-Tyr) hydrolyzing specific activity (potato phosphatase [13]; final purified preparation): 1917 μmol Pi produced min^-1 mg^-1 of protein | PEP-hydrolyzing specific activity (potato phosphatase [13]; final purified preparation, substrate PEP): 618 units/mg | p-nitrophenyl phosphate-hydrolyzing specific activity (potato phosphatase [13]; purified PTAP sample used for microprobe analysis): 618 units/mg | Relative phosphotyrosyl content after incubation at 25° C ([14]; 20 kD polypeptide, 2h): 66 ± 5 % initial value | Relative phosphotyrosyl content after incubation at 25° C ([14]; 20 kD polypeptide, 19h): 12 ± 3 % initial value | Relative phosphotyrosyl content after incubation at 25° C ([14]; 34 kD polypeptide, 2h): 40 ± 3 % initial value | Relative phosphotyrosyl content after incubation at 25° C ([14]; 34 kD polypeptide, 19h): 16 + 2 % initial value | Relative phosphotyrosyl content after incubation at 25° C ([14]; 85 kD polypeptide, 2h): 69 ± 2 % initial value | Relative phosphotyrosyl content after incubation at 25° C ([14]; 85 kD polypeptide, 19h): 34 ± 2 % initial value | Relative phosphotyrosyl content after incubation at 25° C ([14]; 102 kD polypeptide, 2h): 60 ± 5 % initial value | Relative phosphotyrosyl content after incubation at 25° C ([14]; 102 kD polypeptide, 19h): 36 ± 3 % initial value | Relative phosphotyrosyl content after incubation at 25° C ([14]; 228.5 kD polypeptide, 2h): 65 ± 2 % initial value | Relative phosphotyrosyl content after incubation at 25° C ([14]; 228.5 kD polypeptide, 19h): 28 ± 3 % initial value
